Reference: the supplement of paper PMC7877785
± gives the uncertainty stated by the source.

Test: self-splicing fitness, log relative to wild type (ln ratio); higher = more splicing; Tetrahymena group I intron in knt gene, E. coli kanamycin selection, DiMSum; sequences stand for … in CUCUCU…GGAGGGAAAAGUUAUCAGGCAUGCACCUGGUAGCUAGUCUUUAAACCAAUAGAUUGCAUCGGUUUAAAAGGCAAGACCGUCAAAUUGCGGGAAAGGGGUCAACAGCCGUUCAGUACCAAGUCUCAGGGGAAACUUUGAGAUGGCCUUGCAAAGGGUAUGGUAAUAAGCUGACGGACAUGGUCCUAACCACGCAGCCAAGUCCUAAGUCAACAGAUCUUCUGUUGAUAUGGAUGCAGUUCACAGACUAAAUGUCGGUCGGGGAAGAUGUAUUCUUCUCAUAAGAUAUAGUCGGACCUCUCCUUAAUGGGAGCUAGCGGAUGAAGUGAUGCAACACUGGAGCCGCUGGGAACUAAUUUGUAUGCGAAAGUAUAUUGAUUAGUUUUGGAGUACUCGUGGUCG
Outline: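 Library with all eight P1ex-region intron nucleotides randomised, intron inside the knt kanamycin-resistance gene on pET-22b(+), in E. coli BL21(DE3). Cells grew overnight at 37°C or 30°C on LB agar with or without 25 μg/mL kanamycin (plus 100 μg/mL carbenicillin, 50 μM IPTG, 0.2% rhamnose), in six replicate transformations. Pooled colonies were amplicon-sequenced on Illumina HiSeq 2500. DiMSum fitness is the error-weighted combination of wild-type-normalised replicate fold changes, kanamycin versus none.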

Sequence | self-splicing fitness (ln) (30 °C) | self-splicing fitness (ln) (37 °C)
UGUUAGCAAUAUUACGGUAA | -1.05 ± 0.1 | -0.0801 ± 0.097
UGUUAGCAAUAUUACGGUUA | -0.39 ± 0.086 | 0.504 ± 0.088
UGUUAGCAAUAUUACGUAAC | -1.65 ± 0.46 | -1.55 ± 0.5
UGUUAGCAAUAUUACGUACG | -0.624 ± 0.17 | 0.229 ± 0.22
UGUUAGCAAUAUUACGUGCG | -1.23 ± 0.11 | -0.303 ± 0.14
UGUUAGCAAUAUUACGUGUA | -2.88 ± 0.16 | -0.349 ± 0.1
UGUUAGCAAUAUUACGUGUU | -3.3 ± 0.29 | -3.27 ± 0.47
UGUUAGCAAUAUUACGUUGU | -3.71 ± 0.28 | -2.3 ± 0.17
UUAAAGCAAUAUUACGACAG | 0.285 ± 0.1 | 0.0597 ± 0.14
UUAAAGCAAUAUUACGAGGC | -3.94 ± 0.37 | -2.36 ± 0.29
UUAAAGCAAUAUUACGAGGG | -2.1 ± 0.17 | -1.12 ± 0.26
UUAAAGCAAUAUUACGAUAU | -1.05 ± 0.11 | -0.358 ± 0.13
UUAAAGCAAUAUUACGAUCU | -0.857 ± 0.065 | -0.22 ± 0.088
UUAAAGCAAUAUUACGAUGA | 0.452 ± 0.081 | 0.681 ± 0.11
UUAAAGCAAUAUUACGAUGG | 0.00244 ± 0.084 | 0.04 ± 0.1
UUAAAGCAAUAUUACGCCCA | 0.818 ± 0.11 | 0.402 ± 0.14
UUAAAGCAAUAUUACGCGCG | -0.058 ± 0.12 | 0.00297 ± 0.16
UUAAAGCAAUAUUACGCUAU | -3.01 ± 0.14 | -0.748 ± 0.1
UUAAAGCAAUAUUACGCUUA | -1.02 ± 0.083 | -0.561 ± 0.11

Sequence | self-splicing fitness (ln) (30 °C) | self-splicing fitness (ln) (37 °C)
UUAAAGCAAUAUUACGGAGA | -1.64 ± 0.15 | 0.00703 ± 0.2
UUAAAGCAAUAUUACGGCUA | 0.185 ± 0.091 | 0.424 ± 0.12
UUAAAGCAAUAUUACGGGGA | -1.02 ± 0.068 | 0.216 ± 0.1
UUAAAGCAAUAUUACGGGGC | -3.68 ± 0.25 | -2.51 ± 0.32
UUAAAGCAAUAUUACGGUCG | 0.224 ± 0.082 | 0.441 ± 0.095
UUAAAGCAAUAUUACGGUUC | -3.46 ± 0.19 | -1.81 ± 0.18
UUAAAGCAAUAUUACGUACA | 0.237 ± 0.088 | 0.0455 ± 0.12
UUAAAGCAAUAUUACGUACC | -1.73 ± 0.12 | -0.333 ± 0.16
UUAAAGCAAUAUUACGUAGC | -4.43 ± 0.3 | -2.96 ± 0.48
UUAAAGCAAUAUUACGUCAA | -0.222 ± 0.082 | -0.107 ± 0.095
UUAAAGCAAUAUUACGUCCA | -0.0955 ± 0.086 | 0.343 ± 0.11
UUAAAGCAAUAUUACGUCGA | 0.349 ± 0.082 | 0.262 ± 0.095
UUAAAGCAAUAUUACGUUCU | -1.08 ± 0.091 | -0.401 ± 0.12
UUAAAGCAAUAUUACGUUGC | -3.24 ± 0.28 | -2.66 ± 0.3
UUACAGCAAUAUUACGACAA | -0.25 ± 0.07 | 0.353 ± 0.083
UUACAGCAAUAUUACGACGU | -3.61 ± 0.31 | -3.23 ± 0.4
UUACAGCAAUAUUACGAUCU | -1.88 ± 0.063 | -1.02 ± 0.079
UUACAGCAAUAUUACGCAUC | -3.36 ± 0.15 | -1.6 ± 0.13
